Source: article PMC13001094, “Cargo Recognition of Nesprin‑2 by the Dynein Adapter Bicaudal D2 for a Nuclear Positioning Pathway That Is Important for Brain Development” (Biochemistry, 2026)

B1: His6-tagged human BicD2-CTD (aa 715–804) [human] / GST-tagged mouse Nesprin-2 (aa 6123–6421) [mouse] (parent complex)
chain 1: YENEKAMVTETMMKLRNELKALKEDAATFSSLRAMFATRCDEYITQLDEMQRQLAAAEDEKKTLNSLLRMAIQQKLALTQRLELLELDHE
chain 2: RLWQKFLDDYSRFEDWLKSAERTAACPNSSEVLYTNAKEELKRFEAFQRQIHERLTQLELINKQYRRLARENRTDTASKLKQMVHEGNQRWDNLQKRVTAILRRLRYFTNQREEFEGTRESILVWLTEMDLQLTNVEHFSESDAEDKMRQLNGFQQEITLNTNKIDQLIVFGEQLIQKSEPLDAVLIEDELEELHRYCQEVFGRVSRFHRRLTSHTPGLDDEKEASENETDIEDPREIQADSWRKRRESEEPTSPQSLCHLVPPALGHERSGCETPVSVDSIPLEWDHTGDVGGSSSHE

Variants of: B1
Test: GST-pulldown, SDS-PAGE band intensity; n = 3; parent: 1; read off a plot

Variant | ratio to parent
chain 2 E128A | ~0.81
chain 2 V124A, chain 2 L131A, chain 2 F139A | ~0.04
chain 2 H138A | ~0.29
chain 2 Y197A | ~0.32

Variants of: B1
Test: as above
Remark: another data set of the same source

Variant | ratio to parent
chain 1 E83C | ~0.47
chain 1 R69A | ~0.47
